The supplement of paper PMC11316812
± gives the standard deviation of the averaged measurements.

Assays:
MCF7 = assay: percentage of EdU-negative (G0-arrested) nuclei per well, 72 h; higher = more G0 arrest; conditions: reference: sequence is the full UniProt precursor, the tested protein was the secreted form or ectodomain
hTERT-HMEC = assay: as above; conditions: reference: sequence is the full UniProt precursor, the tested protein was the secreted form or ectodomain
[1] = protein concentration 0.01525 µM
[2] = protein concentration 0.1525 µM
[3] = protein concentration 0.00725 µM
[4] = protein concentration 0.0725 µM
[5] = protein concentration 0.0293325 µM
[6] = protein concentration 0.293325 µM
[7] = protein concentration 0.0225 µM
[8] = protein concentration 0.03125 µM
[9] = protein concentration 0.3125 µM
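Further: secreted proteins added to cultured cells, EdU pulse at the end, nuclei found by Hoechst imaging, EdU status from nuclear versus surrounding ring intensity ratio, PBS as neutral control.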

## MPSSTAMAVGALSSSLLVTCCLMVALCSPSIPLEKLAQAPEQPGQEKREHASRDGPGRVNELGRPARDEGGSGRDWKSKSGRGLAGREPWSKLKQAWVSQGGGAKAGDLQVRPRGDTPQAEALAAAAQDAIGPELAPTPEPPEEYVYPDYRGKGCVDESGFVYAIGEKFAPGPSACPCLCTEEGPLCAQPECPRLHPRCIHVDTSQCCPQCKERKNYCEFRGKTYQTLEEFVVSPCERCRCEANGEVLCTVSACPQTECVDPVYEPDQCCPICKNGPNCFAETAVIPAGREVKTDECTICHCTYEEGTWRIERQAMCTRHECRQM [Q2TAL6]
MCF7; [1]
  percentage of EdU-negative: 22.8 ± 3.1%
MCF7; [2]
  percentage of EdU-negative: 25.17 ± 0.21%
hTERT-HMEC; [1]
  percentage of EdU-negative: 5.49 ± 1.1%
hTERT-HMEC; [2]
  percentage of EdU-negative: 7.17 ± 0.096%

## MPSWALFMVTSCLLLAPQNLAQVSSQDVSLLASDSEPLKCFSRTFEDLTCFWDEEEAAPSGTYQLLYAYPREKPRACPLSSQSMPHFGTRYVCQFPDQEEVRLFFPLHLWVKNVFLNQTRTQRVLFVDSVGLPAPPSIIKAMGGSQPGELQISWEEPAPEISDFLRYELRYGPRDPKNSTGPTVIQLIATETCCPALQRPHSASALDQSPCAQPTMPWQDGPKQTSPSREASALTAEGGSCLISGLQPGNSYWLQLRSEPDGISLGGSWGSWSLPVTVDLPGDAVALGLQCFTLDLKNVTCQWQQQDHASSQGFFYHSRARCCPRDRYPIWENCEEEEKTNPGLQTPQFSRCHFKSRNDSIIHILVEVTTAPGTVHSYLGSPFWIHQAVRLPTPNLHWREISSGHLELEWQHPSSWAAQETCYQLRYTGEGHQDWKVLEPPLGARGGTLELRPRSRYRLQLRARLNGPTYQGPWSSWSDPTRVETATETAWISLVTALHLVLGLSAVLGLLLLRWQFPAHYRRLRHALWPSLPDLHRVLGQYLRDTAALSPPKATVSDTCEEVEPSLLEILPKSSERTPLPLCSSQAQMDYRRLQPSCLGTMPLSVCPPMAESGSCCTTHIANHSYLPLSYWQQP
MCF7; [3]
  percentage of EdU-negative: 25.4 ± 0.65%
MCF7; [4]
  percentage of EdU-negative: 26.02 ± 0.25%
hTERT-HMEC; [3]
  percentage of EdU-negative: 4.77 ± 0.37%
hTERT-HMEC; [4]
  percentage of EdU-negative: 6.04 ± 0.21%

## MPVMRLFPCFLQLLAGLALPAVPPQQWALSAGNGSSEVEVVPFQEVWGRSYCRALERLVDVVSEYPSEVEHMFSPSCVSLLRCTGCCGDENLHCVPVETANVTMQLLKIRSGDRPSYVELTFSQHVRCECRHSPGRQSPDMPGDFRADAPSFLPPRRSLPMLFRMEWGCALTGSQSAVWPSSPVPEEIPRMHPGRNGKKQQRKPLREKMKPERCGDAVPRR
MCF7; [5]
  percentage of EdU-negative: 24.4 ± 0.58%
MCF7; [6]
  percentage of EdU-negative: 25.4 ± 0.6%
hTERT-HMEC; [5]
  percentage of EdU-negative: 4.772 ± 0.0079%
hTERT-HMEC; [6]
  percentage of EdU-negative: 5.02 ± 0.86%

## MPVPASWPHLPSPFLLMTLLLGRLTGVAGEDELQVIQPEKSVSVAAGESATLRCAMTSLIPVGPIMWFRGAGAGRELIYNQKEGHFPRVTTVSELTKRNNLDFSISISNITPADAGTYYCVKFRKGSPDDVEFKSGAGTELSVRAKPSAPVVSGPAVRATPEHTVSFTCESHGFSPRDITLKWFKNGNELSDFQTNVDPAGDSVSYSIHSTARVVLTRGDVHSQVICEIAHITLQGDPLRGTANLSEAIRVPPTLEVTQQPMRAENQANVTCQVSNFYPRGLQLTWLENGNVSRTETASTLIENKDGTYNWMSWLLVNTCAHRDDVVLTCQVEHDGQQAVSKSYALEISAHQKEHGSDITHEAALAPTAPLLVALLLGPKLLLVVGVSAIYICWKQKA
MCF7; [7]
  percentage of EdU-negative: 24.1 ± 1.1%
MCF7; protein concentration 0.225 µM
  percentage of EdU-negative: 27 ± 1.5%
hTERT-HMEC; [7]
  percentage of EdU-negative: 5.34 ± 0.15%
hTERT-HMEC; protein concentration 0.225 µM
  percentage of EdU-negative: 5.42 ± 0.66%

## MPWPLLLLLAVSGAQTTRPCFPGCQCEVETFGLFDSFSLTRVDCSGLGPHIMPVPIPLDTAHLDLSSNRLEMVNESVLAGPGYTTLAGLDLSHNLLTSISPTAFSRLRYLESLDLSHNGLTALPAESFTSSPLSDVNLSHNQLREVSVSAFTTHSQGRALHVDLSHNLIHRLVPHPTRAGLPAPTIQSLNLAWNRLHAVPNLRDLPLRYLSLDGNPLAVIGPGAFAGLGGLTHLSLASLQRLPELAPSGFRELPGLQVLDLSGNPKLNWAGAEVFSGLSSLQELDLSGTNLVPLPEALLLHLPALQSVSVGQDVRCRRLVREGTYPRRPGSSPKVALHCVDTRDSAARGPTIL [Q8WUA8]
MCF7; [8]
  percentage of EdU-negative: 28 ± 1.4%
MCF7; [9]
  percentage of EdU-negative: 29.1 ± 0.81%
hTERT-HMEC; [8]
  percentage of EdU-negative: 5.33 ± 0.84%
hTERT-HMEC; [9]
  percentage of EdU-negative: 5.25 ± 0.93%

## MQAARGGAGRPERPGRPGRGPERERERPPGAGAASPCAAPGLPAGGATIHPGSPSAWPPRARAALRLWLGCVCFALVQADSPSAPVNVTVRHLKANSAVVSWDVLEDEVVIGFAISQQKKDVRMLRFIQEVNTTTRSCALWDLEEDTEYIVHVQAISIQGQSPASEPVLFKTPREAEKMASKNKDEVTMKEMGRNQQLRTGEVLIIVVVLFMWAGVIALFCRQYDIIKDNEPNNNKEKTKSASETSTPEHQGGGLLRSKI [Q8NAU1]
MCF7; [7]
  percentage of EdU-negative: 27.08 ± 0.2%
MCF7; protein concentration 0.225 µM
  percentage of EdU-negative: 25.3 ± 1.4%
hTERT-HMEC; [7]
  percentage of EdU-negative: 5.26 ± 1.1%
hTERT-HMEC; protein concentration 0.225 µM
  percentage of EdU-negative: 5.43 ± 0.82%

## MQAAWLLGALVVPQLLGFGHGARGAEREWEGGWGGAQEEEREREALMLKHLQEALGLPAGRGDENPAGTVEGKEDWEMEEDQGEEEEEEATPTPSSGPSPSPTPEDIVTYILGRLAGLDAGLHQLHVRLHALDTRVVELTQGLRQLRNAAGDTRDAVQALQEAQGRAEREHGRLEGCLKGLRLGHKCFLLSRDFEAQAAAQARCTARGGSLAQPADRQQMEALTRYLRAALAPYNWPVWLGVHDRRAEGLYLFENGQRVSFFAWHRSPRPELGAQPSASPHPLSPDQPNGGTLENCVAQASDDGSWWDHDCQRRLYYVCEFPF [Q9Y240]
MCF7; [8]
  percentage of EdU-negative: 24.4 ± 0.81%
MCF7; [9]
  percentage of EdU-negative: 27.6 ± 1.3%
hTERT-HMEC; [8]
  percentage of EdU-negative: 6.19 ± 0.7%
hTERT-HMEC; [9]
  percentage of EdU-negative: 6.64 ± 1.2%
